To fix the notation:
T1: β-casein, P02666
T1 chain: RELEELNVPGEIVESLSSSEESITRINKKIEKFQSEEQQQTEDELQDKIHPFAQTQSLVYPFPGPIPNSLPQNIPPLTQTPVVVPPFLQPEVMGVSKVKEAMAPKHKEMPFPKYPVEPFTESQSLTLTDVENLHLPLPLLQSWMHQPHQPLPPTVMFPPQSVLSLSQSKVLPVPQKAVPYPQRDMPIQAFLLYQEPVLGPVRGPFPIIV

B1: camel chymosin variant 293 (Y190A+N100Q+N291Q) (protein)
chain: GKVAREPLTSYLDSQYFGKIYIGTPPQEFTVVFDTGSSDLWVPSIYCKSNVCKNHHRFDPRKSSTFRNLGKPLSIHYGTGSMEGFLGYDTVTVSNIVDPQQTVGLSTEQPGEVFTYSEFDGILGLAYPSLASEYSVPVFDNMMDRHLVARDLFSVYMDRNGQGSMLTLGAIDPSYYTGSLHWVPVTLQQAWQFTVDSVTINGVAVACVGGCQAILDTGTSVLFGPSSDILKIQMAIGATENRYGEFDVNCGNLRSMPTVVFEINGRDYPLSPSAYTSKDQGFCTSGFQGDQNSELWILGDVFIREYYSVFDRANNRVGLAKAI
B2: camel chymosin variant 303 (L130I+N100Q+N291Q) (protein)
chain: GKVAREPLTSYLDSQYFGKIYIGTPPQEFTVVFDTGSSDLWVPSIYCKSNVCKNHHRFDPRKSSTFRNLGKPLSIHYGTGSMEGFLGYDTVTVSNIVDPQQTVGLSTEQPGEVFTYSEFDGILGLAYPSIASEYSVPVFDNMMDRHLVARDLFSVYMDRNGQGSMLTLGAIDPSYYTGSLHWVPVTLQQYWQFTVDSVTINGVAVACVGGCQAILDTGTSVLFGPSSDILKIQMAIGATENRYGEFDVNCGNLRSMPTVVFEINGRDYPLSPSAYTSKDQGFCTSGFQGDQNSELWILGDVFIREYYSVFDRANNRVGLAKAI
B3: camel chymosin variant 272 (D290E+N100Q+N291Q) (protein)
chain: GKVAREPLTSYLDSQYFGKIYIGTPPQEFTVVFDTGSSDLWVPSIYCKSNVCKNHHRFDPRKSSTFRNLGKPLSIHYGTGSMEGFLGYDTVTVSNIVDPQQTVGLSTEQPGEVFTYSEFDGILGLAYPSLASEYSVPVFDNMMDRHLVARDLFSVYMDRNGQGSMLTLGAIDPSYYTGSLHWVPVTLQQYWQFTVDSVTINGVAVACVGGCQAILDTGTSVLFGPSSDILKIQMAIGATENRYGEFDVNCGNLRSMPTVVFEINGRDYPLSPSAYTSKDQGFCTSGFQGEQNSELWILGDVFIREYYSVFDRANNRVGLAKAI
B4: camel chymosin variant 280 (D290L+N100Q+N291Q) (protein)
chain: GKVAREPLTSYLDSQYFGKIYIGTPPQEFTVVFDTGSSDLWVPSIYCKSNVCKNHHRFDPRKSSTFRNLGKPLSIHYGTGSMEGFLGYDTVTVSNIVDPQQTVGLSTEQPGEVFTYSEFDGILGLAYPSLASEYSVPVFDNMMDRHLVARDLFSVYMDRNGQGSMLTLGAIDPSYYTGSLHWVPVTLQQYWQFTVDSVTINGVAVACVGGCQAILDTGTSVLFGPSSDILKIQMAIGATENRYGEFDVNCGNLRSMPTVVFEINGRDYPLSPSAYTSKDQGFCTSGFQGLQNSELWILGDVFIREYYSVFDRANNRVGLAKAI
B5: camel chymosin variant 304 (S132A+N100Q+N291Q) (protein)
chain: GKVAREPLTSYLDSQYFGKIYIGTPPQEFTVVFDTGSSDLWVPSIYCKSNVCKNHHRFDPRKSSTFRNLGKPLSIHYGTGSMEGFLGYDTVTVSNIVDPQQTVGLSTEQPGEVFTYSEFDGILGLAYPSLAAEYSVPVFDNMMDRHLVARDLFSVYMDRNGQGSMLTLGAIDPSYYTGSLHWVPVTLQQYWQFTVDSVTINGVAVACVGGCQAILDTGTSVLFGPSSDILKIQMAIGATENRYGEFDVNCGNLRSMPTVVFEINGRDYPLSPSAYTSKDQGFCTSGFQGDQNSELWILGDVFIREYYSVFDRANNRVGLAKAI
B6: camel chymosin variant 270 (V32L+N100Q+N291Q) (protein)
chain: GKVAREPLTSYLDSQYFGKIYIGTPPQEFTVLFDTGSSDLWVPSIYCKSNVCKNHHRFDPRKSSTFRNLGKPLSIHYGTGSMEGFLGYDTVTVSNIVDPQQTVGLSTEQPGEVFTYSEFDGILGLAYPSLASEYSVPVFDNMMDRHLVARDLFSVYMDRNGQGSMLTLGAIDPSYYTGSLHWVPVTLQQYWQFTVDSVTINGVAVACVGGCQAILDTGTSVLFGPSSDILKIQMAIGATENRYGEFDVNCGNLRSMPTVVFEINGRDYPLSPSAYTSKDQGFCTSGFQGDQNSELWILGDVFIREYYSVFDRANNRVGLAKAI
B7: camel chymosin variant 275 (R242Q+N100Q+N291Q) (protein)
chain: GKVAREPLTSYLDSQYFGKIYIGTPPQEFTVVFDTGSSDLWVPSIYCKSNVCKNHHRFDPRKSSTFRNLGKPLSIHYGTGSMEGFLGYDTVTVSNIVDPQQTVGLSTEQPGEVFTYSEFDGILGLAYPSLASEYSVPVFDNMMDRHLVARDLFSVYMDRNGQGSMLTLGAIDPSYYTGSLHWVPVTLQQYWQFTVDSVTINGVAVACVGGCQAILDTGTSVLFGPSSDILKIQMAIGATENQYGEFDVNCGNLRSMPTVVFEINGRDYPLSPSAYTSKDQGFCTSGFQGDQNSELWILGDVFIREYYSVFDRANNRVGLAKAI
B8: camel chymosin variant 306 (G251D+N100Q+N291Q) (protein)
chain: GKVAREPLTSYLDSQYFGKIYIGTPPQEFTVVFDTGSSDLWVPSIYCKSNVCKNHHRFDPRKSSTFRNLGKPLSIHYGTGSMEGFLGYDTVTVSNIVDPQQTVGLSTEQPGEVFTYSEFDGILGLAYPSLASEYSVPVFDNMMDRHLVARDLFSVYMDRNGQGSMLTLGAIDPSYYTGSLHWVPVTLQQYWQFTVDSVTINGVAVACVGGCQAILDTGTSVLFGPSSDILKIQMAIGATENRYGEFDVNCDNLRSMPTVVFEINGRDYPLSPSAYTSKDQGFCTSGFQGDQNSELWILGDVFIREYYSVFDRANNRVGLAKAI
B9: camel chymosin variant 299 (L222I+N100Q+N291Q) (protein)
chain: GKVAREPLTSYLDSQYFGKIYIGTPPQEFTVVFDTGSSDLWVPSIYCKSNVCKNHHRFDPRKSSTFRNLGKPLSIHYGTGSMEGFLGYDTVTVSNIVDPQQTVGLSTEQPGEVFTYSEFDGILGLAYPSLASEYSVPVFDNMMDRHLVARDLFSVYMDRNGQGSMLTLGAIDPSYYTGSLHWVPVTLQQYWQFTVDSVTINGVAVACVGGCQAILDTGTSVIFGPSSDILKIQMAIGATENRYGEFDVNCGNLRSMPTVVFEINGRDYPLSPSAYTSKDQGFCTSGFQGDQNSELWILGDVFIREYYSVFDRANNRVGLAKAI
B10: camel chymosin variant 307 (Y243E+N100Q+N291Q) (protein)
chain: GKVAREPLTSYLDSQYFGKIYIGTPPQEFTVVFDTGSSDLWVPSIYCKSNVCKNHHRFDPRKSSTFRNLGKPLSIHYGTGSMEGFLGYDTVTVSNIVDPQQTVGLSTEQPGEVFTYSEFDGILGLAYPSLASEYSVPVFDNMMDRHLVARDLFSVYMDRNGQGSMLTLGAIDPSYYTGSLHWVPVTLQQYWQFTVDSVTINGVAVACVGGCQAILDTGTSVLFGPSSDILKIQMAIGATENREGEFDVNCGNLRSMPTVVFEINGRDYPLSPSAYTSKDQGFCTSGFQGDQNSELWILGDVFIREYYSVFDRANNRVGLAKAI
B11: camel chymosin variant 308 (S273D+N100Q+N291Q) (protein)
chain: GKVAREPLTSYLDSQYFGKIYIGTPPQEFTVVFDTGSSDLWVPSIYCKSNVCKNHHRFDPRKSSTFRNLGKPLSIHYGTGSMEGFLGYDTVTVSNIVDPQQTVGLSTEQPGEVFTYSEFDGILGLAYPSLASEYSVPVFDNMMDRHLVARDLFSVYMDRNGQGSMLTLGAIDPSYYTGSLHWVPVTLQQYWQFTVDSVTINGVAVACVGGCQAILDTGTSVLFGPSSDILKIQMAIGATENRYGEFDVNCGNLRSMPTVVFEINGRDYPLSPDAYTSKDQGFCTSGFQGDQNSELWILGDVFIREYYSVFDRANNRVGLAKAI
B12: camel chymosin variant 295 (H76Q+N100Q+N291Q) (protein)
chain: GKVAREPLTSYLDSQYFGKIYIGTPPQEFTVVFDTGSSDLWVPSIYCKSNVCKNHHRFDPRKSSTFRNLGKPLSIQYGTGSMEGFLGYDTVTVSNIVDPQQTVGLSTEQPGEVFTYSEFDGILGLAYPSLASEYSVPVFDNMMDRHLVARDLFSVYMDRNGQGSMLTLGAIDPSYYTGSLHWVPVTLQQYWQFTVDSVTINGVAVACVGGCQAILDTGTSVLFGPSSDILKIQMAIGATENRYGEFDVNCGNLRSMPTVVFEINGRDYPLSPSAYTSKDQGFCTSGFQGDQNSELWILGDVFIREYYSVFDRANNRVGLAKAI
B13: camel chymosin variant 305 (S226T+N100Q+N291Q) (protein)
chain: GKVAREPLTSYLDSQYFGKIYIGTPPQEFTVVFDTGSSDLWVPSIYCKSNVCKNHHRFDPRKSSTFRNLGKPLSIHYGTGSMEGFLGYDTVTVSNIVDPQQTVGLSTEQPGEVFTYSEFDGILGLAYPSLASEYSVPVFDNMMDRHLVARDLFSVYMDRNGQGSMLTLGAIDPSYYTGSLHWVPVTLQQYWQFTVDSVTINGVAVACVGGCQAILDTGTSVLFGPTSDILKIQMAIGATENRYGEFDVNCGNLRSMPTVVFEINGRDYPLSPSAYTSKDQGFCTSGFQGDQNSELWILGDVFIREYYSVFDRANNRVGLAKAI
B14: camel chymosin variant 296 (S273Y+N100Q+N291Q) (protein)
chain: GKVAREPLTSYLDSQYFGKIYIGTPPQEFTVVFDTGSSDLWVPSIYCKSNVCKNHHRFDPRKSSTFRNLGKPLSIHYGTGSMEGFLGYDTVTVSNIVDPQQTVGLSTEQPGEVFTYSEFDGILGLAYPSLASEYSVPVFDNMMDRHLVARDLFSVYMDRNGQGSMLTLGAIDPSYYTGSLHWVPVTLQQYWQFTVDSVTINGVAVACVGGCQAILDTGTSVLFGPSSDILKIQMAIGATENRYGEFDVNCGNLRSMPTVVFEINGRDYPLSPYAYTSKDQGFCTSGFQGDQNSELWILGDVFIREYYSVFDRANNRVGLAKAI
B15: camel chymosin variant 276 (G289S+N100Q+N291Q) (protein)
chain: GKVAREPLTSYLDSQYFGKIYIGTPPQEFTVVFDTGSSDLWVPSIYCKSNVCKNHHRFDPRKSSTFRNLGKPLSIHYGTGSMEGFLGYDTVTVSNIVDPQQTVGLSTEQPGEVFTYSEFDGILGLAYPSLASEYSVPVFDNMMDRHLVARDLFSVYMDRNGQGSMLTLGAIDPSYYTGSLHWVPVTLQQYWQFTVDSVTINGVAVACVGGCQAILDTGTSVLFGPSSDILKIQMAIGATENRYGEFDVNCGNLRSMPTVVFEINGRDYPLSPSAYTSKDQGFCTSGFQSDQNSELWILGDVFIREYYSVFDRANNRVGLAKAI

This data set has as its target T1, β-casein, P02666. The note with it: scale: % cleavage of non-glycosylated camel chymosin.
Protein B1 yielded a β(193-209): cleavage of β-casein at position 192/193 of 28.
In turn, B2 had a β(193-209): cleavage of β-casein at position 192/193 of 29.
B3 had a β(193-209): cleavage of β-casein at position 192/193 of 60.
The protein B4 yielded a β(193-209): cleavage of β-casein at position 192/193 of 58.
As for B5, the β(193-209): cleavage of β-casein at position 192/193 is 28.
In turn, B6 gave a β(193-209): cleavage of β-casein at position 192/193 of 28.
To B7 belongs 74.
To B8 belongs 88; to B9, 54.
To B10 belongs 62; to B11, 66; to B12, 48.
Protein B13 gave a β(193-209): cleavage of β-casein at position 192/193 of 44.
To B14 belongs 58.
B15 returned a β(193-209): cleavage of β-casein at position 192/193 of 51.

These data come from patent US20180187179.
